Reference: US20200283482A1, “BICYCLIC PEPTIDE LIGAND PRR-A CONJUGATES AND USES THEREOF” (BicycleRD Limited, priority 2017, published 2020)
Where two headings read alike, the source gives them in different places. Starred links: 1 amine or outer side, 2 acyl side, 3 side chain; linkers in the order of their positions; H or OH if unused. Positions of bridges follow the written chain, without caps; N, C: chain ends. Non-standard residues stand in square brackets, D forms with d. Residues, ends and D or L forms follow the SMILES beside them. *: point of attachment. X11 = CCCOc1nc(NC(=O)OCc2ccc(NC(=O)[C@H](CCCNC(N)=O)NC(=O)[C@@H](NC(=O)Cn3cc(CCC(=O)*)nn3)C(C)C)cc2)c2[nH]c(=O)n(Cc3ccc(OCCN(C)C)nc3)c2n1; X3 = CCOCc1nc2c(NC(=O)OCc3ccc(NC(=O)[C@H](CCCNC(N)=O)NC(=O)[C@@H](NC(=O)Cn4cc(CCC(=O)*)nn4)C(C)C)cc3)nc3ccccc3c2n1CC(C)(C)O; X2 = CCOCc1nc2c(NC(=O)OCCSCC(=O)*)nc3ccccc3c2n1CC(C)(C)O; 1Nal = N[C@@H](Cc1cccc2ccccc12)C(=O)O; TBMB = c1c(C[*:1])cc(C[*:3])cc1C[*:2]; Tle = CC(C)(C)[C@H](N)C(=O)O; βAla = NCCC(=O)O; Sar = CNCC(=O)O

Assays:
Plasma stability, dog = format: in vitro ADME; details: pH 7.4
Procedure: (§1) The pooled frozen mouse, rat, dog, monkey or human plasma is thawed in a water bath at 37° C. prior to experiment. Plasma is centrifuged at 4000 rpm for 5 min and the clots are removed if any. […] For positive controls, 100 μM intermediate solution is prepared by diluting 20 μL of the stock solution with 180 μL 45% MeOH/H2O. […] For compounds I-7 to […]-17, […]-22, and […]-33, at each time point (0, 1, 2, 4, 6 and 24 hr), reactions were stopped by removing the plates from water bath and 200 μL 20 mM NH4OAC mix well first and then adding 800 μL of ice-cold stop solution (200 ng/mL Labetalol, 200 ng/mL Tolbutamide, 500 ng/mL N6-Ben and 40 mM DBAA in 100% Methanol). […] Sample plates were vortexed immediately on a plate shaker at 800 rpm for 10 min and then centrifuged at 4,000 rpm for 10 min. An aliquot of supernatant (200 μL) is transferred from each well before submitting to LC-MS/MS analysis. The percentage of test compound remaining at the individual time points relative to the 0 hour sample is calculated using following equation: Percent Remaining=100×(PAR at appointed incubation time/PAR at T0 time) where PAR is the peak area ratio of analyte versus internal standard (IS).

Plasma stability, rat = format: in vitro ADME; details: pH 7.4
Procedure: as §1

Plasma stability, mouse = format: in vitro ADME; details: pH 7.4
Procedure: as §1

Blood stability, mouse = format: in vitro ADME, CD-1 mouse; details: male, CD-1, mouse
Procedure: CD-1 mouse blood (n≥2, male, fasted overnight) is collected from animals housed at an internal facility. (EDTA-K2 is used as anticoagulant)
The test compounds and positive control stock solutions are prepared to 10 mM in DMSO or ultrapure water. Control compounds bisacodyl, enalapril and propantheline known to be metabolised by blood are also incubated alongside each batch of test compounds I-7, I-22, I-24, I-25, I-27, and I-29 to I-33. The dosing solutions of test compounds and controls are prepared by diluting the stock solution with 45% MeOH/H2O to achieve 100 uM. Test compound solutions (final incubation concentration=2 μM) are incubated with blood (final DMSO concentration≤1%) at six different time points (0, 1, 2, 4, 6 and 24 hours) in duplicate (n=2). The reaction is terminated by adding 100 uL ultra-pure water, mixing well, then adding 800 uL of 100% methanol containing 200 ng/mL tolbutamide and 200 ng/mL labetalol as internal standards. Samples are then vortexed and centrifuged at 3200×g for 20 minutes. Following centrifugation, the concentration of test compound in the supernatant is determined semi-quantitatively by LC-MS/MS. The percentage of test compound remaining at the individual time points relative to the 0 hour sample is then reported. The percent remaining of test compound after incubation in blood is calculated using following equation: Percent Remaining=100×(PAR at appointed incubation time/PAR at T0 time) where PAR is the peak area ratio of analyte versus internal standard (IS).

Plasma stability, cyno = format: in vitro ADME; details: cynomolgus monkey, pH 7.4
Procedure: as §1

Plasma stability, human = format: in vitro ADME; details: pH 7.4
Procedure: as §1

hemopexin domain of MT1 [1] = biological target: T1, hemopexin domain of MT1 (Homo sapiens, UniProt P50281); assay: Fluorescence polarization binding to MT1-MMP hemopexin domain; details: read-out: apparent Kd
Procedure: Direct Binding Fluorescence Polarization or Anisotropy Assays are performed by titrating a constant concentration of fluorescent tracer (here, the fluoresceinated bicyclic peptide to be studied) with its binding partner (here, the MT1-MMP hemopexin domain). As the concentration of binding partner increases during the titration, the polarization signal changes in proportion to the fraction of bound and unbound material. This allows determination of […] (Kd) quantitatively. Assay data can be fit using standard ligand binding equations.
The titrant (binding partner) concentration is varied from 0.1 nM up to typically 5 μM. The range is chosen such that the maximum change in fluorescent polarization can be observed. Buffers employed are phosphate buffered saline in the presence of 0.01% Tween. Experiments were run in black 384 well low-bind/low volume plates (Corning 3820), and the fluorescent polarization signal was measured using a BMG Pherastar FS plate reader. […]
Here, a preformed complex of PEX with the fluorescent PEX-binding tracer is titrated with free, non-fluoresceinated bicyclic peptide. […] Dissociation of the complex can be measured quantitatively, and the Kd of the competitor (titrant) to the target protein determined. The advantage of the competition method is that the affinities of non-fluoresceinated bicyclic peptides can be determined accurately and rapidly. […]

[2] = Tumor localization after IV injection; format: in vivo; details: mouse, mice bearing MT1-positive tumor xenografts, in less than 60 minutes, read-out: tumor localization level
hemopexin domain of MT1 [3] = biological target: T1, hemopexin domain of MT1; details: MT1-MMP binder formed with TBMB scaffold, as described in WO 2016/067035; cited from earlier work

| Compound | half-life at 2 μM (Plasma stability, dog; dog, plasma) [min] | half-life at 2 μM (Plasma stability, rat; rat, plasma) [min] | half-life at 2 μM (Plasma stability, mouse; mouse, plasma) [min] | half-life at 2 μM (Blood stability, mouse) [min] | half-life at 2 μM (Plasma stability, cyno; plasma) [min] | half-life at 2 μM (Plasma stability, human; human, plasma) [min] | also measured |
| --- | --- | --- | --- | --- | --- | --- | --- |
| CCOCc1nc2c(NC(=O)OCCSCC(=O)NCCC(=O)N(C)CC(=O)N(C)CC(=O)N(C)CC(=O)N(C)CC(=O)N(C)CC(=O)N(C)CC(=O)N(C)CC(=O)N(C)CC(=O)N(C)CC(=O)N(C)CC(=O)N[C@@H](C)C(=O)N[C@H]3CSCc4cc5cc(c4)CSC[C@H](NC(=O)[C@@H](C)NC(=O)[C@H](Cc4cccc6ccccc46)NC(=O)[C@H](CCC(=O)O)NC(=O)[C@H](CC(N)=O)NC(=O)[C@@H](C)NC3=O)C(=O)N[C@@H](CCC(=O)O)C(=O)N[C@@H](CC(=O)O)C(=O)N[C@@H](Cc3ccccc3)C(=O)N[C@@H](Cc3ccc(O)cc3)C(=O)N[C@@H](CC(=O)O)C(=O)N[C@@H](C(C)(C)C)C(=O)N[C@H](C(N)=O)CSC5)nc3ccccc3c2n1CC(C)(C)O [I-7] ({X2-βAla}-[Sar][Sar][Sar][Sar][Sar][Sar][Sar][Sar][Sar][Sar]AC[dA]NE[1Nal][dA]CEDFYD[Tle]C-NH2; linker 12-18-25 via TBMB) | > 1440 | 360 to 1440 | 360 to 1440 | < 120 | > 1440 | > 1440 | – |
| CCCOc1nc(NC(=O)OCc2ccc(NC(=O)[C@H](CCCNC(N)=O)NC(=O)[C@@H](NC(=O)Cn3cc(CCC(=O)NCCC(=O)N(C)CC(=O)N(C)CC(=O)N(C)CC(=O)N(C)CC(=O)N(C)CC(=O)N(C)CC(=O)N(C)CC(=O)N(C)CC(=O)N(C)CC(=O)N(C)CC(=O)N[C@@H](C)C(=O)N[C@H]4CSCc5cc6cc(c5)CSC[C@H](NC(=O)[C@@H](C)NC(=O)[C@H](Cc5cccc7ccccc57)NC(=O)[C@H](CCC(=O)O)NC(=O)[C@H](CC(N)=O)NC(=O)[C@@H](C)NC4=O)C(=O)N[C@@H](CCC(=O)O)C(=O)N[C@@H](CC(=O)O)C(=O)N[C@@H](Cc4ccccc4)C(=O)N[C@@H](Cc4ccc(O)cc4)C(=O)N[C@@H](CC(=O)O)C(=O)N[C@@H](C(C)(C)C)C(=O)N[C@H](C(N)=O)CSC6)nn3)C(C)C)cc2)c2[nH]c(=O)n(Cc3ccc(OCCN(C)C)nc3)c2n1 [I-18] ({X11-βAla}-[Sar][Sar][Sar][Sar][Sar][Sar][Sar][Sar][Sar][Sar]AC[dA]NE[1Nal][dA]CEDFYD[Tle]C-NH2; linker 12-18-25 via TBMB) | – | – | – | – | – | – | half-life at 2 μM (Plasma stability, dog; dog plasma, 2 μM, 37° C., read-out: T1/2 (dog)): < 120 min; half-life at 2 μM (Plasma stability, rat; rat plasma, 2 μM, 37° C., read-out: T1/2 (rat)): < 120 min; half-life at 2 μM (Plasma stability, mouse; mouse plasma, 2 μM, 37° C., read-out: T1/2 (mouse)): < 120 min; half-life at 2 μM (Plasma stability, cyno; cyno plasma, 2 μM, 37° C., read-out: T1/2 (cyno)): < 120 min; half-life at 2 μM (Plasma stability, human; human plasma, 2 μM, 37° C., read-out: T1/2 (human)): < 120 min |
| CCOCc1nc2c(NC(=O)OCc3ccc(NC(=O)[C@H](CCCNC(N)=O)NC(=O)[C@@H](NC(=O)Cn4cc(CCC(=O)NCCC(=O)N(C)CC(=O)N(C)CC(=O)N(C)CC(=O)N(C)CC(=O)N(C)CC(=O)N(C)CC(=O)N(C)CC(=O)N(C)CC(=O)N(C)CC(=O)N(C)CC(=O)N[C@@H](C)C(=O)N[C@H]5CSCc6cc7cc(c6)CSC[C@H](NC(=O)[C@@H](C)NC(=O)[C@H](Cc6cccc8ccccc68)NC(=O)[C@H](CCC(=O)O)NC(=O)[C@H](CC(N)=O)NC(=O)[C@@H](C)NC5=O)C(=O)N[C@@H](CCC(=O)O)C(=O)N[C@@H](CC(=O)O)C(=O)N[C@@H](Cc5ccccc5)C(=O)N[C@@H](Cc5ccc(O)cc5)C(=O)N[C@@H](CC(=O)O)C(=O)N[C@@H](C(C)(C)C)C(=O)N[C@H](C(N)=O)CSC7)nn4)C(C)C)cc3)nc3ccccc3c2n1CC(C)(C)O [I-22] ({X3-βAla}-[Sar][Sar][Sar][Sar][Sar][Sar][Sar][Sar][Sar][Sar]AC[dA]NE[1Nal][dA]CEDFYD[Tle]C-NH2; linker 12-18-25 via TBMB) | > 1440 | 120 to 360 | 120 to 360 | < 120 | > 1440 | > 1440 | – |
| C[C@H](NC(=O)CN(C)C(=O)CN(C)C(=O)CN(C)C(=O)CN(C)C(=O)CN(C)C(=O)CN(C)C(=O)CN(C)C(=O)CN(C)C(=O)CN(C)C(=O)CN(C)C(=O)CCN)C(=O)N[C@H]1CSCc2cc3cc(c2)CSC[C@H](NC(=O)[C@@H](C)NC(=O)[C@H](Cc2cccc4ccccc24)NC(=O)[C@H](CCC(=O)O)NC(=O)[C@H](CC(N)=O)NC(=O)[C@@H](C)NC1=O)C(=O)N[C@@H](CCC(=O)O)C(=O)N[C@@H](CC(=O)O)C(=O)N[C@@H](Cc1ccccc1)C(=O)N[C@@H](Cc1ccc(O)cc1)C(=O)N[C@@H](CC(=O)O)C(=O)N[C@@H](C(C)(C)C)C(=O)N[C@H](C(N)=O)CSC3 [N241] (H-[βAla][Sar][Sar][Sar][Sar][Sar][Sar][Sar][Sar][Sar][Sar]AC[dA]NE[1Nal][dA]CEDFYD[Tle]C-NH2; linker 13-19-26 via TBMB) | – | – | – | – | – | – | Kd (hemopexin domain of MT1 [1]): ~2 nM |
| C[C@H](NC(=O)CN(C)C(=O)CN(C)C(=O)CN(C)C(=O)CN(C)C(=O)CN(C)C(=O)CN(C)C(=O)CN(C)C(=O)CN(C)C(=O)CN(C)C(=O)CN(C)C(=O)CCN)C(=O)N[C@H]1CSCc2cc3cc(c2)CSC[C@H](NC(=O)[C@@H](C)NC(=O)[C@H](Cc2cccc4ccccc24)NC(=O)[C@H](CCC(=O)O)NC(=O)[C@H](CC(N)=O)NC(=O)[C@@H](C)NC1=O)C(=O)N[C@@H](CCC(=O)O)C(=O)N[C@@H](CC(=O)O)C(=O)N[C@@H](Cc1ccccc1)C(=O)N[C@@H](Cc1ccc(O)cc1)C(=O)N[C@@H](CC(=O)O)C(=O)N[C@@H](C(C)(C)C)C(=O)N[C@H](C(N)=O)CSC3 [^177Lu-loaded N241, metal not drawn] (H-[βAla][Sar][Sar][Sar][Sar][Sar][Sar][Sar][Sar][Sar][Sar]AC[dA]NE[1Nal][dA]CEDFYD[Tle]C-NH2; linker 13-19-26 via TBMB; N-terminus and C-terminus assumed) | – | – | – | – | – | – | tissue uptake [2]: 15 to 20 %ID/g |
| βAla-Sar10-A-C(D-Ala)NE(1Nal)(D-Ala)CEDFYD(tBuGLy)C [17-69-07-N241] | – | – | – | – | – | – | Kd (hemopexin domain of MT1 [3]): 1.2 nM |
